Key:
RBPJ (53–474) = RBPJ (53–474) (Mus musculus, UniProt P31266); experiment: ITC binding of L3MBTL3 constructs and peptides to native RBPJ; details: 25°C; for K / Kd: 50 mM sodium phosphate pH 6.5, 150 mM NaCl, one site binding model; for K: mean of at least three independent experiments ± SD, NBD = no binding detected; for Kd: mean of at least three independent experiments
RBPJ = details: read-out: affinity for RBPJ; ref [19],[20]; cited from earlier work
[1] = pH 6.5, mean of at least three independent experiments ± SD

Chain of RBPJ (53–474) (P31266 53-474): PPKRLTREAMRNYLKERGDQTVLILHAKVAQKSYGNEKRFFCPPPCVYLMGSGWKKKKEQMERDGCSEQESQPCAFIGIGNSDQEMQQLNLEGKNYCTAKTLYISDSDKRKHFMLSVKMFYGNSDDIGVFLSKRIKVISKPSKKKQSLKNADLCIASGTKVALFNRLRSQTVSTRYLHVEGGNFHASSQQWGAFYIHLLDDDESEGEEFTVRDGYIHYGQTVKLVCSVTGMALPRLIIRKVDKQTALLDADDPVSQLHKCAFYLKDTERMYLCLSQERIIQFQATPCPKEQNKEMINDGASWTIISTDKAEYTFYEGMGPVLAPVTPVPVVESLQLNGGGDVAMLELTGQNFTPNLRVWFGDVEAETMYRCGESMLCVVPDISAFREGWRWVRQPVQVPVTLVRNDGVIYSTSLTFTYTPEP

B1: 198–523: human L3MBTL3 fragment, the MBT domains (198–523) (protein, UniProt Q96JM7 198-523, looked up, fragment)
chain: QDVRILRGSQRARRKRRGDSAVLKQGLPPKGKKAWCWASYLEEEKAVAVPAKLFKEHQSFPYNKNGFKVGMKLEGVDPEHQSVYCVLTVAEVCGYRIKLHFDGYSDCYDFWVNADALDIHPVGWCEKTGHKLHPPKGYKEEEFNWQTYLKTCKAQAAPKSLFENQNITVIPSGFRVGMKLEAVDKKNPSFICVATVTDMVDNRFLVHFDNWDESYDYWCEASSPHIHPVGWCKEHRRTLITPPGYPNVKHFSWDKYLEETNSLPAPARAFKVKPPHGFQKKMKLEVVDKRNPMFIRVATVADTDDHRVKVHFDGWNNCYDYWIDAD
With B1 the “binding to RBPJ, in words” value (RBPJ (53–474)) was “no detectable binding” and the K (RBPJ (53–474)) was “NBD”.

B2: 1–523: human L3MBTL3 fragment, N-terminal region through the MBT domains (residues 1–523) (protein, UniProt Q96JM7 1-523, looked up, fragment)
chain: MTESASSTSGQEFDVFSVMDWKDGVGTLPGSDLKFRVNEFGALEVITDENEMENVKKATATTTWMVPTAQEAPTSPPSSRPVFPPAYWTSPPGCPTVFSEKTGMPFRLKDPVKVEGLQFCENCCQYGNVDECLSGGNYCSQNCARHIKDKDQKEERDVEEDNEEEDPKCSRKKKPKLSLKADTKEDGEERDDEMENKQDVRILRGSQRARRKRRGDSAVLKQGLPPKGKKAWCWASYLEEEKAVAVPAKLFKEHQSFPYNKNGFKVGMKLEGVDPEHQSVYCVLTVAEVCGYRIKLHFDGYSDCYDFWVNADALDIHPVGWCEKTGHKLHPPKGYKEEEFNWQTYLKTCKAQAAPKSLFENQNITVIPSGFRVGMKLEAVDKKNPSFICVATVTDMVDNRFLVHFDNWDESYDYWCEASSPHIHPVGWCKEHRRTLITPPGYPNVKHFSWDKYLEETNSLPAPARAFKVKPPHGFQKKMKLEVVDKRNPMFIRVATVADTDDHRVKVHFDGWNNCYDYWIDAD
For B2, the Kd (RBPJ (53–474)) was 1900 nM, the K (RBPJ (53–474)) was 5.4 ± 0.9 × 10^5 M^−^1 and the “ΔG°” value (RBPJ (53–474); [1]) was -7.7 ± 0.2 kcal/mol. For the same molecule, the “–TΔS°” value (RBPJ (53–474); [1]) was 2.9 ± 1.8 kcal/mol.

B3: RITA1: corepressor, RBPJ interacting Tubulin associated protein 1 (protein, UniProt Q96K30 1-269, looked up)
RBPJ-interacting and …: MKTPVELAVSGMQTLGLQHRCRGGYRVKARTSYVDETLFGSPAGTRPTPPDFDPPWVEKANRTRGVGKEASKALGAKGSCETTPSRGSTPTLTPRKKNKYRPISHTPSYCDESLFGSRSEGASFGAPRMAKGDAAKLRALLWTPPPTPRGSHSPRPREAPLRAIHPAGPSKTEPGPAADSQKLSMGGLHSSRPLKRGLSHSLTHLNVPSTGHPATSAPHTNGPQDLRPSTSGVTFRSPLVTSRARSVSISVPSTPRRGGATQKPKPPWK
In the case of B3, the Kd (RBPJ) is listed as ~1000 nM.

B4: 1–197: human L3MBTL3 fragment, the N-terminus (1–197) (protein, UniProt Q96JM7 1-197, looked up, fragment)
chain: MTESASSTSGQEFDVFSVMDWKDGVGTLPGSDLKFRVNEFGALEVITDENEMENVKKATATTTWMVPTAQEAPTSPPSSRPVFPPAYWTSPPGCPTVFSEKTGMPFRLKDPVKVEGLQFCENCCQYGNVDECLSGGNYCSQNCARHIKDKDQKEERDVEEDNEEEDPKCSRKKKPKLSLKADTKEDGEERDDEMENK
With B4 the Kd (RBPJ (53–474)) was 1500 nM, the K (RBPJ (53–474)) was 6.6 ± 0.3 × 10^5 M^−^1 and the “ΔG°” value (RBPJ (53–474); [1]) was -7.9 ± 0.03 kcal/mol. The “ΔH°” value (RBPJ (53–474); [1]) was -7.2 ± 0.1 kcal/mol and the “–TΔS°” value (RBPJ (53–474); [1]) was -0.7 ± 0.1 kcal/mol.

From publication PMC9825171 (Nucleic Acids Research, 2022)
